Assay results as given in article PMC2171315 (The Journal of Cell Biology, 2005).

Molecular target: GST-Nup2p (S. cerevisiae, UniProt P32499 1-720)
Test: pull-down

Sequence of GST-Nup2p (P32499 whole entry): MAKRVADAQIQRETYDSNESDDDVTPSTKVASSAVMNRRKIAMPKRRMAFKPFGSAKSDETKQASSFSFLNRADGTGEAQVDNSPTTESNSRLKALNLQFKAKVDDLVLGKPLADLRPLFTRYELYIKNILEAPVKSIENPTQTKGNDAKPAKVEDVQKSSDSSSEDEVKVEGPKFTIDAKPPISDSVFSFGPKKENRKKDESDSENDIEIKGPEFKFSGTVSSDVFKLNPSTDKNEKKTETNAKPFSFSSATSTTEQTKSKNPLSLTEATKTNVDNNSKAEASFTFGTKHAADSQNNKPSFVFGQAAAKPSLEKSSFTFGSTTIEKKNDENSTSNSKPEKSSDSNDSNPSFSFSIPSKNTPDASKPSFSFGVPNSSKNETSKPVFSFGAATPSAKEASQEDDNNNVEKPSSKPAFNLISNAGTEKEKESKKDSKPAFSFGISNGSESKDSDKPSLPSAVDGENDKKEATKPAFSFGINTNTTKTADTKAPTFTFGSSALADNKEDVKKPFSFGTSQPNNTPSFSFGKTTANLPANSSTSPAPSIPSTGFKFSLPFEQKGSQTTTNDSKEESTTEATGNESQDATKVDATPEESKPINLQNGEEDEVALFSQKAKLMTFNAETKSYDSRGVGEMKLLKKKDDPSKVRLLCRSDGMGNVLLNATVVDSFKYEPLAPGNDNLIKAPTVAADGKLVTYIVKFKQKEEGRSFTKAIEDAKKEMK

B1: Bacterially expressed and purified Prp20p (natural protein)
chain: MVKRTVATNGDASGAHRAKKMSKTHASHIINAQEDYKHMYLSVQPLDIFCWGTGSMCELGLGPLAKNKEVKRPRLNPFLPRDEAKIISFAVGGMHTLALDEESNVWSWGCNDVGALGRDTSNAKEQLKDMDADDSSDDEDGDLNELESTPAKIPRESFPPLAEGHKVVQLAATDNMSCALFSNGEVYAWGTFRCNEGILGFYQDKIKIQKTPWKVPTFSKYNIVQLAPGKDHILFLDEEGMVFAWGNGQQNQLGRKVMERFRLKTLDPRPFGLRHVKYIASGENHCFALTKDNKLVSWGLNQFGQCGVSEDVEDGALVTKPKRLALPDNVVIRSIAAGEHHSLILSQDGDLYSCGRLDMFEVGIPKDNLPEYTYKDVHGKARAVPLPTKLNNVPKFKSVAAGSHHSVAVAQNGIAYSWGFGETYAVGLGPFEDDTEVPTRIKNTATQDHNIILVGCGGQFSVSGGVKLSDEDAEKRADEMDD
binding result: binds
